Measurements reported in publication PMC6613885 (Autophagy, 2019).
Ends that are not written are not given here.

T1: biotin-labeled 16-mer BECN1 S2E LIR peptide (human, also: biotin label, place not given here)
T1 chain: STEEANEFTLIGEASD

T2: biotin-labeled 16-mer PIK3C3 S2E LIR peptide (human, also: biotin label, place not given here)
T2 chain: SEPILTEFELVKVPDP

B1: recombinant GABARAP (biolayer interferometry) (natural protein, UniProt O95166 1-117, looked up)
chain: MKFVYKEEHPFEKRRSEGEKIRKKYPDRVPVIVEKAPKARIGDLDKKKYLVPSDLTVGQFYFLIRKRIHLRAEDALFFFVNNVIPPTSATMGQLYQEHHEEDFFLYIAYSDESVYGL
notes: GABARAP; construct of the BLI experiment not described; source: recombinant
B2: recombinant LC3C (biolayer interferometry) (natural protein, UniProt Q9BXW4 1-126, looked up)
chain: MPPPQKIPSVRPFKQRKSLAIRQEEVAGIRAKFPNKIPVVVERYPRETFLPPLDKTKFLVPQELTMTQFLSIIRSRMVLRATEAFYLLVNNKSLVSMSATMAEIYRDYKDEDGFVYMTYASQETFG
notes: LC3C; construct of the BLI experiment not described; source: recombinant

Tests used:
Settings in all cases: both partners purified
GST-GABARAPL1 = target: T3, GST-GABARAPL1 (UniProt Q9H0R8 1-117); test: peptide or protein array; two-dimensional scan: 18-mer peptides on cellulose membrane, each position replaced with all 20 amino acids; probed with 1 µg/ml GST-GABARAPL1 for 2 h; anti-GST antibody
T3 construct: GABARAPL1 (GABA type A receptor associated protein like 1); also called pDest15 (GST)-GABARAPL1; source: E. coli SoluBL21, purified on glutathione-Sepharose 4 Fast Flow beads

[1] = target: T1, biotin-labeled 16-mer BECN1 S2E LIR …; test: BLI; biotin-LIR peptides (50 µg/ml) on streptavidin biosensors, Atg8-family protein in solution at different concentrations; Octet Red 96; 25°C; global fit, 1:1 model
[2] = target: T2, biotin-labeled 16-mer PIK3C3 S2E LIR …; test: as above
[3] = target: B1; test: as above
[4] = target: B2; test: as above
[5] = target: recombinant GABARAPL1 (biolayer interferometry) (UniProt Q9H0R8 1-117); test: as above
recombinant GABARAPL1 (biolayer interferometry), sequence (Q9H0R8 whole entry, looked up): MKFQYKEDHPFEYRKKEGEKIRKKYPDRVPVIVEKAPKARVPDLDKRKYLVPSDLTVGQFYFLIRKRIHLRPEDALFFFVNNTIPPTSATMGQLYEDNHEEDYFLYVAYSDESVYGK

Row | Binder | binding result (GST-GABARAPL1) | further results
1 | MSTESANAFTLIGEASDG (BECN1, human, amino acids 89-106; source: synthetic peptide, SPOT synthesis on cellulose membrane) [BECN1 89-106 18-mer array peptide, S96A] | binds | –
2 | B1 | – | fold increase in binding affinity over the wild-type LIR peptide [1]: 3 fold; fold increase in binding over the wild-type LIR peptide [2]: 17 fold
3 | ETDLGTEWENLPSPRFCD (ATG14, human, amino acids 428-445; source: synthetic peptide, SPOT synthesis on cellulose membrane) [ATG14 428-445 18-mer array peptide, D434E] | binds | –
4 | B2 | – | fold increase in binding affinity over the wild-type LIR peptide [1]: 8 fold; fold increase in binding over the wild-type LIR peptide [2]: 15 fold
5 | MSTESANDFTLIGEASDG (BECN1, human, amino acids 89-106; source: synthetic peptide, SPOT synthesis on cellulose membrane) [BECN1 89-106 18-mer array peptide, S96D] | binds | –
6 | ESSPILTSFVLVKVPDPQ (PIK3C3, human, amino acids 242-259; source: synthetic peptide, SPOT synthesis on cellulose membrane) [PIK3C3 242-259 18-mer array peptide, E251V] | binds | –
7 | ETDLGTDWENLPSPRF (also: biotin label, place not given here) [biotin-labeled 16-mer ATG14 LIR peptide] | – | Kd [3]: 2.85 µM; Kd [4]: 5.85 µM; Kd [5]: 1.9 µM
8 | MSTESANEFTLIGEASDG (BECN1, human, amino acids 89-106; source: synthetic peptide, SPOT synthesis on cellulose membrane) [BECN1 89-106 18-mer array peptide, S96E] | binds | –
9 | MSTESANSWTLIGEASDG (BECN1, human, amino acids 89-106; source: synthetic peptide, SPOT synthesis on cellulose membrane) [BECN1 89-106 18-mer array peptide, F97W] | binds | –
10 | MSTESANSFTLLGEASDG (BECN1, human, amino acids 89-106; source: synthetic peptide, SPOT synthesis on cellulose membrane) [BECN1 89-106 18-mer array peptide, I100L] | binds | –
11 | ESSPILTSFLLVKVPDPQ (PIK3C3, human, amino acids 242-259; source: synthetic peptide, SPOT synthesis on cellulose membrane) [PIK3C3 242-259 18-mer array peptide, E251L] | binds | –
12 | ESSPILTSFEIVKVPDPQ (PIK3C3, human, amino acids 242-259; source: synthetic peptide, SPOT synthesis on cellulose membrane) [PIK3C3 242-259 18-mer array peptide, L252I] | binds | –
13 | ESSPILTSFEFVKVPDPQ (PIK3C3, human, amino acids 242-259; source: synthetic peptide, SPOT synthesis on cellulose membrane) [PIK3C3 242-259 18-mer array peptide, L252F] | binds | –
14 | MSTESANSFTLIPEASDG (BECN1, human, amino acids 89-106; source: synthetic peptide, SPOT synthesis on cellulose membrane) [BECN1 89-106 18-mer array peptide, G101P] | binds | –
15 | MSTESANSFTLIGEASDG (BECN1, human, amino acids 89-106; also called BECN1 LIR; source: synthetic peptide, SPOT synthesis on cellulose membrane) [BECN1 89-106 18-mer array peptide, wild type] | binds | –
16 | ETDLGTDWENLPSPRFCD (ATG14, human, amino acids 428-445; also called ATG14 LIR; source: synthetic peptide, SPOT synthesis on cellulose membrane) [ATG14 428-445 18-mer array peptide, wild type] | binds | –
17 | ETDLGTDYENLPSPRFCD (ATG14, human, amino acids 428-445; source: synthetic peptide, SPOT synthesis on cellulose membrane) [ATG14 428-445 18-mer array peptide, W435Y] | binds | –
18 | MSTESANGFTLIGEASDG (BECN1, human, amino acids 89-106; source: synthetic peptide, SPOT synthesis on cellulose membrane) [BECN1 89-106 18-mer array peptide, S96G] | binds | –
19 | MSTESANSFTWIGEASDG (BECN1, human, amino acids 89-106; source: synthetic peptide, SPOT synthesis on cellulose membrane) [BECN1 89-106 18-mer array peptide, L99W] | binds | –
20 | MSTESANSFCLIGEASDG (BECN1, human, amino acids 89-106; source: synthetic peptide, SPOT synthesis on cellulose membrane) [BECN1 89-106 18-mer array peptide, T98C] | binds | –
21 | MSTESANSFTLIEEASDG (BECN1, human, amino acids 89-106; source: synthetic peptide, SPOT synthesis on cellulose membrane) [BECN1 89-106 18-mer array peptide, G101E] | binds | –
22 | MSTESANSFTIIGEASDG (BECN1, human, amino acids 89-106; source: synthetic peptide, SPOT synthesis on cellulose membrane) [BECN1 89-106 18-mer array peptide, L99I] | binds | –

Row | Binder | binding result (GST-GABARAPL1) | further results
23 | ESSPILTSFELVKVPDPQ (PIK3C3, human, amino acids 242-259; also called PIK3C3 LIR; source: synthetic peptide, SPOT synthesis on cellulose membrane) [PIK3C3 242-259 18-mer array peptide, wild type] | binds | –
24 | ETDLGTDWVNLPSPRFCD (ATG14, human, amino acids 428-445; source: synthetic peptide, SPOT synthesis on cellulose membrane) [ATG14 428-445 18-mer array peptide, E436V] | binds | –
25 | ESSPILTSFELIKVPDPQ (PIK3C3, human, amino acids 242-259; source: synthetic peptide, SPOT synthesis on cellulose membrane) [PIK3C3 242-259 18-mer array peptide, V253I] | binds | –
26 | MSTESANCFTLIGEASDG (BECN1, human, amino acids 89-106; source: synthetic peptide, SPOT synthesis on cellulose membrane) [BECN1 89-106 18-mer array peptide, S96C] | binds | –
27 | ESSPILTSFEVVKVPDPQ (PIK3C3, human, amino acids 242-259; source: synthetic peptide, SPOT synthesis on cellulose membrane) [PIK3C3 242-259 18-mer array peptide, L252V] | binds | –
28 | ETDLGTDWINLPSPRFCD (ATG14, human, amino acids 428-445; source: synthetic peptide, SPOT synthesis on cellulose membrane) [ATG14 428-445 18-mer array peptide, E436I] | binds | –
29 | MSTESANTFTLIGEASDG (BECN1, human, amino acids 89-106; source: synthetic peptide, SPOT synthesis on cellulose membrane) [BECN1 89-106 18-mer array peptide, S96T] | binds | –
30 | ESSPILTSFEYVKVPDPQ (PIK3C3, human, amino acids 242-259; source: synthetic peptide, SPOT synthesis on cellulose membrane) [PIK3C3 242-259 18-mer array peptide, L252Y] | binds | –
31 | ETDLGTDWENFPSPRFCD (ATG14, human, amino acids 428-445; source: synthetic peptide, SPOT synthesis on cellulose membrane) [ATG14 428-445 18-mer array peptide, L438F] | binds | –
32 | ETDLGTDFENLPSPRFCD (ATG14, human, amino acids 428-445; source: synthetic peptide, SPOT synthesis on cellulose membrane) [ATG14 428-445 18-mer array peptide, W435F] | binds | –
33 | MSTESANSFTLIDEASDG (BECN1, human, amino acids 89-106; source: synthetic peptide, SPOT synthesis on cellulose membrane) [BECN1 89-106 18-mer array peptide, G101D] | binds | –
34 | MSTESANSFELIGEASDG (BECN1, human, amino acids 89-106; source: synthetic peptide, SPOT synthesis on cellulose membrane) [BECN1 89-106 18-mer array peptide, T98E] | binds | –
35 | MSTESANWFTLIGEASDG (BECN1, human, amino acids 89-106; source: synthetic peptide, SPOT synthesis on cellulose membrane) [BECN1 89-106 18-mer array peptide, S96W] | binds | –
36 | ESSPILTSWELVKVPDPQ (PIK3C3, human, amino acids 242-259; source: synthetic peptide, SPOT synthesis on cellulose membrane) [PIK3C3 242-259 18-mer array peptide, F250W] | binds | –
37 | MSTESANSFILIGEASDG (BECN1, human, amino acids 89-106; source: synthetic peptide, SPOT synthesis on cellulose membrane) [BECN1 89-106 18-mer array peptide, T98I] | binds | –
38 | MSTESANSFTFIGEASDG (BECN1, human, amino acids 89-106; source: synthetic peptide, SPOT synthesis on cellulose membrane) [BECN1 89-106 18-mer array peptide, L99F] | binds | –
39 | STESANSFTLIGEASD (also: biotin label, place not given here) [biotin-labeled 16-mer BECN1 LIR peptide] | – | Kd [3]: 10.5 µM; Kd [5]: 7.95 µM
40 | ESSPILTSFFLVKVPDPQ (PIK3C3, human, amino acids 242-259; source: synthetic peptide, SPOT synthesis on cellulose membrane) [PIK3C3 242-259 18-mer array peptide, E251F] | binds | –
41 | SSPILTSFELVKVPDP (also: biotin label, place not given here) [biotin-labeled 16-mer PIK3C3 LIR peptide] | – | Kd [3]: 49.5 µM; Kd [5]: 65 µM
42 | ESSPILTSFILVKVPDPQ (PIK3C3, human, amino acids 242-259; source: synthetic peptide, SPOT synthesis on cellulose membrane) [PIK3C3 242-259 18-mer array peptide, E251I] | binds | –
43 | MSTESANSFVLIGEASDG (BECN1, human, amino acids 89-106; source: synthetic peptide, SPOT synthesis on cellulose membrane) [BECN1 89-106 18-mer array peptide, T98V] | binds | –
44 | ESSPILTSFEWVKVPDPQ (PIK3C3, human, amino acids 242-259; source: synthetic peptide, SPOT synthesis on cellulose membrane) [PIK3C3 242-259 18-mer array peptide, L252W] | binds | –
